Results from patent US20140120095A1 (Boehringer Ingelheim, published 2014).
Where a chain is given by its changes, count along the chain named. Where two headings read alike, the source gives them in different places. Values belong to the binder of their own block, whether it stands above or below them.

What was measured:
[1] = target: T1, recombinant human VEGF165 (human, UniProt P15692-4 27-191, biotinylated in the competition assays); experiment: SPR Biacore, immobilised hVEGF165, two state reaction model
T1 construct: Bought protein; also called hVEGF165; rhVEGF165
Experimental: Samples are injected for 2 min and allowed to dissociate up to 20 min at a flow rate of 45 μl/min. In between sample injections, the chip surface is regenerated with 100 mM HCl. HBS-EP+(Hepes buffer pH7.4+EDTA) is used as running buffer. Binding curves are fitted using a Two State Reaction model by Biacore T100 Evaluation Software v2.0.1.
^{(a)}KD = kd1/kₐ₁ * (kd2/(kd2 + kₐ₂)) ^{(b)}Curves are fitted using a Two State Reaction model by Biacore T100 Evaluation Software v2.0.1
Target sequence in this assay (P15692 other isoform, or with tags, fused parts or gaps): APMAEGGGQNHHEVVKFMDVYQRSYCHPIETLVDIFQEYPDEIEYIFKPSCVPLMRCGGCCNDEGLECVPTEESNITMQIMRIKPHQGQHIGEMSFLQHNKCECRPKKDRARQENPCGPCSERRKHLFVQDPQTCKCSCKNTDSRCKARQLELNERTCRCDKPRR

[2] = target: T1, recombinant human VEGF165; experiment: AlphaScreen, hVEGF165/hVEGFR1-Fc competition; design: % inhibition: concentration or dose not given beside the values
Experimental: (§1) Finally, streptavidin donor beads (20 μg/ml) are added and after 1 hour of incubation in the dark, fluorescence is measured on the Envision microplate reader.
Target sequence in this assay (P15692 other isoform, or with tags, fused parts or gaps): as above

[3] = target: T1, recombinant human VEGF165; experiment: AlphaScreen, hVEGF165/hVEGFR2-Fc competition
Experimental: as §1
Target sequence in this assay (P15692 other isoform, or with tags, fused parts or gaps): as above

[4] = target: T1, recombinant human VEGF165; experiment: ELISA, hVEGF165/hVEGFR2-Fc competition; design: % inhibition: concentration or dose not given beside the values
[5] = target: T2, VEGF (used to stimulate HUVEC cells) (UniProt P15692-4 27-191, limits assumed); experiment: cell-based or functional assay
Target sequence in this assay (P15692 other isoform, or with tags, fused parts or gaps limits assumed): as the sequence (P15692 other isoform, or with tags, fused parts or gaps) above

[6] = target: T3, recombinant mouse VEGF164 (mouse, UniProt Q00731-2 27-190, biotinylated as the labelled ligand of the mVEGF164/mVEGFR2 AlphaScreen); experiment: binding ELISA, coated rmVEGF164
T3 construct: also called mVEGF164; rmVEGF164
T3 sequence (looked up): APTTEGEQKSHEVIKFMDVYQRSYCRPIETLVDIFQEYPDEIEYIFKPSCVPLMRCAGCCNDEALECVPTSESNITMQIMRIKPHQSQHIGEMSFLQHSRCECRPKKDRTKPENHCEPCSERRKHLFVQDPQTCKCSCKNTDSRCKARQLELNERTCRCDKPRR
Experimental: Cross-reactivity to mouse VEGF164 is determined using a binding ELISA. […] Wells are blocked with a casein solution (1% in PBS). […] A mouse VEGF164 reactive mAb is included as positive control.

[7] = target: T1, recombinant human VEGF165; experiment: binding ELISA, coated rhVEGF165
Target sequence in this assay (P15692 other isoform, or with tags, fused parts or gaps): as the sequence (P15692 other isoform, or with tags, fused parts or gaps) above

[8] = target: T1, recombinant human VEGF165; experiment: AlphaScreen, hVEGF165/hVEGFR1-Fc competition
Experimental: as §1
Target sequence in this assay (P15692 other isoform, or with tags, fused parts or gaps): as the sequence (P15692 other isoform, or with tags, fused parts or gaps) above

[9] = target: T1, recombinant human VEGF165; experiment: ELISA, hVEGF165/hVEGFR1-Fc competition; design: % inhibition: concentration or dose not given beside the values
Target sequence in this assay (P15692 other isoform, or with tags, fused parts or gaps): as the sequence (P15692 other isoform, or with tags, fused parts or gaps) above

[10] = target: T2, VEGF (used to stimulate HUVEC cells); experiment: cell-based or functional assay; remark: listed apart in the source
Target sequence in this assay (P15692 other isoform, or with tags, fused parts or gaps limits assumed): as the sequence (P15692 other isoform, or with tags, fused parts or gaps) above

[11] = target: T1, recombinant human VEGF165; experiment: AlphaScreen, hVEGF165/hVEGFR2-Fc competition; design: % inhibition: concentration or dose not given beside the values
Experimental: as §1

[12] = target: T1, recombinant human VEGF165; experiment: SPR Biacore, VEGF165
[13] = target: T2, VEGF (used to stimulate HUVEC cells); experiment: cell-based or functional assay; remark: listed apart in the source
[14] = target: T1, recombinant human VEGF165; experiment: AlphaScreen, hVEGF165/hVEGFR2-Fc competition; remark: listed apart in the source
[15] = target: T1, recombinant human VEGF165; experiment: AlphaScreen, hVEGF165/hVEGFR2-Fc competition, -HSA
[16] = target: T1, recombinant human VEGF165; experiment: AlphaScreen, hVEGF165/hVEGFR2-Fc competition, +5 uM HSA
[17] = target: T1, recombinant human VEGF165; experiment: AlphaScreen, hVEGF165/hVEGFR1-Fc competition, -HSA
[18] = target: T4, human DLL4, full length, overexpressed on cells (human, UniProt Q9NR61 27-685); experiment: FMAT, hNotch1-Fc on CHO-hDLL4, +25 uM HSA
T4 construct: CHO cells in FMAT, HEK293 cells in the reporter assay; also called hDLL4; CHO-hDLL4

[19] = target: T4, human DLL4, full length, overexpressed …; experiment: FMAT, hNotch1-Fc on CHO-hDLL4, -HSA
[20] = target: T1, recombinant human VEGF165; experiment: AlphaScreen, hVEGF165/hVEGFR1-Fc competition, -HSA; remark: listed apart in the source
[21] = target: T1, recombinant human VEGF165; experiment: AlphaScreen, hVEGF165/hVEGFR2-Fc competition, +5 uM HSA; remark: listed apart in the source
Experimental: These 2 competition assays are also performed after preincubation of the VHHs with 5 μM human serum albumin.

[22] = target: T1, recombinant human VEGF165; experiment: AlphaScreen, hVEGF165/hVEGFR2-Fc competition, -HSA; remark: listed apart in the source
human DLL1 = target: T5, human DLL1 (human, UniProt O00548 18-545, limits assumed); experiment: binding ELISA on coated recombinant human DLL1, OD 405 nm
T5 construct: also called hDLL1
T5 sequence (looked up): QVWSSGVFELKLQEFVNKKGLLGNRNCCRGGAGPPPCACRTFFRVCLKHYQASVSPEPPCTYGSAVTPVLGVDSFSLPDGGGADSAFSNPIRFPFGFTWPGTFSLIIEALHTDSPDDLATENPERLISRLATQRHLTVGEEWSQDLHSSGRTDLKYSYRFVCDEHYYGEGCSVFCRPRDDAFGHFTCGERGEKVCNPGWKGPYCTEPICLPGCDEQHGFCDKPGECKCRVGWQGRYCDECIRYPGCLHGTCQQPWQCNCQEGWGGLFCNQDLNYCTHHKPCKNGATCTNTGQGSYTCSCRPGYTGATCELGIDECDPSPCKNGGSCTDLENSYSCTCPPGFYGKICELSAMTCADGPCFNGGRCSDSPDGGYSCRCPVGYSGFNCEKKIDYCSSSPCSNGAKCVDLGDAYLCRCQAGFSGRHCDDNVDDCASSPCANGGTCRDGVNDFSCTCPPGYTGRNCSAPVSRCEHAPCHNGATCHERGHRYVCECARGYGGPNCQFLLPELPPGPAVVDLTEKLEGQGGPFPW
Experimental: Absence of binding to homologous ligands human DLL1 and human Jagged-1 is assessed via solid phase binding assay (ELISA). In brief, human DLL1 (Alexis, San Diego, Calif., USA) and human Jagged-1 (Alexis, San Diego, Calif., USA) are coated overnight at 4° C. at 1 μg/mL in a 96-well MaxiSorp plate (Nunc, Wiesbaden, Germany). Wells are blocked with a casein solution (1% in PBS). VHHs are applied as dilution series and binding is detected using a mouse anti-myc (Roche) and an anti-mouse-AP conjugate (Sigma, St. Louis, Mo., USA).

recombinant human DLL4 [23] = target: T6, recombinant human DLL4 (human, UniProt Q9NR61 25-522); experiment: competition AlphaScreen, biot-hDLL4/hNotch1-Fc; partial inhibitor
T6 construct: also called rhDLL4; hDLL4

recombinant human DLL4 [24] = target: T6, recombinant human DLL4; experiment: hDLL4 ELISA screen, periplasmic extract
recombinant human DLL4 [25] = target: T6, recombinant human DLL4; experiment: binding ELISA, coated rhDLL4
Experimental: (§2) In order to determine cross-reactivity to mouse DII4 a binding ELISA is performed. […] Wells are blocked with a casein solution (1% in PBS). VHHs are applied as dilution series and binding is detected using a mouse anti-myc (Roche) and an anti-mouse-AP conjugate (Sigma, St Louis, Mo., USA) (FIG. 7 A-H). As reference, binding to human DII4 is measured.

recombinant mouse DLL4 = target: T7, recombinant mouse DLL4 (mouse, UniProt Q9JI71 27-532); experiment: binding ELISA on coated recombinant mouse DLL4, OD 405 nm
T7 construct: extracellular domain; also called rmDLL4; mDLL4
Experimental: as §2

human Jagged-1 = target: T8, human Jagged-1 (human, UniProt P78504 34-1067, limits assumed); experiment: binding ELISA on coated recombinant human Jagged-1, OD 405 nm
T8 construct: also called hJagged-1; hJAG1
Method in brief: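 Plates coated overnight at 4° C with 1 μg/mL ligand, blocked with 1% casein in PBS. VHH dilution series applied; bound VHH detected via mouse anti-myc then anti-mouse-AP conjugate.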

T7 sequence (Q9JI71 27-532): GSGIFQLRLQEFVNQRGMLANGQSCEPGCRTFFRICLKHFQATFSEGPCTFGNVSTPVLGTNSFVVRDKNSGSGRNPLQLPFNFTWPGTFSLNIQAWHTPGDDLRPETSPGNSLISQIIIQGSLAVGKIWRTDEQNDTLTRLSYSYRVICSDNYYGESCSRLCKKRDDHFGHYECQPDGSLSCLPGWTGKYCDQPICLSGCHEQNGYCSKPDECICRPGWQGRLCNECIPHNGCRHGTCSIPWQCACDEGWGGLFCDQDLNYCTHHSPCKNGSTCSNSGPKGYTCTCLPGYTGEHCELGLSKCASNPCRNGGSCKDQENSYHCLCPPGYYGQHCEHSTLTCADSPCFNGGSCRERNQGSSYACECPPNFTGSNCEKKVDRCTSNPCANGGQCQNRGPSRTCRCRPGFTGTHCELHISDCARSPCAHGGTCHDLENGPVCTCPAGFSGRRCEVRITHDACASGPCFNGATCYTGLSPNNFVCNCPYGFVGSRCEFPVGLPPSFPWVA

B1: VEGFBII021 (VHH, not shown: small tags and cut ends)
chain: EVQLVESGGGLVQTGDSLRLSCEVSGRTFSSYSMGWFRQAQGKEREFVVAISKGGYKYDSVSLEGRFTISKDNAKNTVYLQINSLKPEDTAVYYCASSRAYGSSRLRLADTYEYWGQGTQVTVSSGGGGSGGGGSGGGGSGGGGSGGGGSGGGGSGGGGSGGGGSEVQLVESGGGLVQPGGSLRLSCVASGIRFMSMAWYRQAPGKHRELVARISSGGTTAYVDSVKGRFTISRDNSKNTVYLQMNSLKAEDTAVYYCNTFSSRPNPWGAGTQVTVSS
notes: Bivalent (heterodimeric) anti-VEGF VHH; also called VEGFBII23B04-40GS-5B05
- Kd [1]: 0.07 nM
- ka1 [1]: 1.2e+06 M⁻¹ s⁻¹
- ka2 [1]: 0.023 s⁻¹
- kd1 [1]: 0.011 s⁻¹
- kd2 [1]: 0.00019 s⁻¹
- % inhibition [2]: 100%
- IC50 [2]: 0.012 nM
- IC50 [3]: 0.009 nM
- % inhibition [4]: 100%
- IC50 [4]: 0.204 nM
- % inhibition, VEGF HUVEC proliferation assay [5]: 98%
- IC50, VEGF HUVEC proliferation assay [5]: 0.4 nM
- EC50 [6]: 0.502 nM
- EC50 [7]: 0.334 nM
- % inhibition [8]: 100%
- IC50 [8]: 0.016 nM
- % inhibition [9]: 97%
- IC50 [9]: 0.254 nM
- % inhibition, VEGF HUVEC Erk phosphorylation assay [10]: 103%
- IC50, VEGF HUVEC Erk phosphorylation assay [10]: 0.21 nM
- % inhibition [11]: 100%
- IC50 [11]: 0.007 nM

B2: VEGFBII037 (VHH)
VHH: DVQLVESGGGLVQPGGSLRLSCAASGRTFSSYSMGWFRQAPGKEREFVVAISKGGYKYDAVSLEGRFTISRDNAKNTVYLQMNSLRPEDTAVYYCASSRAYGSSRLRLADTYEYWGQGTLVTVSS
notes: also called VEGFBII0037
- Kd [12]: 0.27 nM
- % inhibition, VEGF HUVEC proliferation assay [13]: 78%
- IC50, VEGF HUVEC proliferation assay [13]: 1.54 nM
- % inhibition [14]: 100%
- IC50 [14]: 0.3 nM

Further lines, results first:

- % inh [15]: 100%
- IC50 [15]: 0.2 nM
- Kd [12]: 0.36 nM
- IC50 [16]: 0.1 nM
- % inh [17]: 50%
- IC50 [17]: 0.2 nM
- % inhibition, VEGF HUVEC proliferation assay [13]: 92%
- IC50, VEGF HUVEC proliferation assay [13]: 0.6 nM
- % inhibition [14]: 100%
- IC50 [14]: 0.143 nM
B3: VEGFBII038 (VHH)
VHH: B2 VHH with M82I
notes: also called VEGFBII0038

- IC50 [18]: 122 nM
- IC50 [19]: 128 nM
- % inh [20]: 69%
- IC50 [20]: 1.58 nM
- % inh [21]: 100%
- IC50 [21]: 0.64 nM
- % inh [22]: 100%
- IC50 [22]: 0.64 nM
B4: VEGFDLLBII001 (bispecific antibody)
chain: EVQLVESGGGLVQAGGSLRLSCAASGRTFSSYAMAWFRQAPGKEREFVAAIRWSGGTAYYADSVQGRFTISRDNAKNTVYLQMNSLKPEDTAVYYCANRAADTRLGPYEYDYWGQGTQVTVSSGGGGSGGGGSGGGGCGGGGSGGGGSGGGGSGGGGSEVQLVESGGGLVQTGDSLRLSCEVSGRTFSSYSMGWFRQAQGKEREFVVAISKGGYKYDSVSLEGRFTISKDNAKNTVYLQINSLKPEDTAVYYCASSRAYGSSRLRLADTYEYWGQGTQVTVSS
modifications: PEGylated at the Cys at position 15 of the 35 Gly-Ser linker
notes: DLLBII101G08 - 35GS(Cys15) - VEGFBII23B04

- binding result (human DLL1): no binding (tested: 2.5e-7 M)
- IC50 (recombinant human DLL4 [23]): 0.7 nM
- % inh (recombinant human DLL4 [24]): 57%
- EC50 (recombinant human DLL4 [25]): 1.1 nM
- binding result (recombinant mouse DLL4): no binding (tested: 2.5e-7 M)
- binding result (human Jagged-1): no binding (tested: 2.5e-7 M)
B5: DLLBII08C11 (VHH)
VHH: EVQLVESGGGLVQAGGSLRLSCAASGFTFDDYAIGWFRQAPGKEREGVSCISSHDRTTYYADSVKGRFTISSDNAKNTVYLQMNSLKPEDTAVYYCAADPLVCGYNDPRLADYWGQGTQVTVSS
notes: also called DLLBII8C11
